Holding throughout (assay): purified protein
What all share (assay type): biochemical, Thermus thermophilus
What all share (details): pH 7.5, 47.5 °C, 10% (v/v) isopropanol, enzyme prediluted in 50 mM phosphate

Substrate in data set [1]: CCCCCCCCCCCC(=O)Oc1ccc([N+](=O)[O-])cc1
Substrate in data set [2]: CCCCCCCCCC(=O)Oc1ccc([N+](=O)[O-])cc1
Substrate in data set [3]: CCCCCCCC(=O)Oc1ccc([N+](=O)[O-])cc1
Substrate in data set [4]: CCCCCCCCCCCCCC(=O)Oc1ccc([N+](=O)[O-])cc1

B1: KLEST-3S esterase (E34Tt, N-terminally truncated ∆N16 variant) (Thermus thermophilus HB27) (protein)
chain: QGLEAFWKAVEVPGGVCADGSPYRFYVSPGDPRKVVVDFQGGGACWDQATCGPESRTYRKRVDVQELYLAQGIYNRMSVANPFFGWTHVFVPYCTGDLHVGRATVDYGGFKVHHQGARNAQAALEYVFRNHTNPERVFVTGCSAGAYGAVLWADKILATYKNAQIAVCGDAGVGVVTEDFPGFTAWNPRLPELPGLSSPPKVSEIYRALAQAYPKAVLAQYTTLLDGTQIYFYALMKKEAAPSEATAREWAVAAERAVGFPASEANYTYYLAPGSQHCILPRPELYTLKVGEVSFLDWLRALAEGRTPPRVRP
notes: ∆N16 (putative secretion signal removed; printed cleavage site between residues 16 and 17); secreted by Kluyveromyces lactis NRRL-Y1140; cell-free medium concentrated by ultrafiltration, partially purified, essentially free of contaminant proteins
With B1, the Michaelis-Menten constant (Km) (commonly the concentration of substrate that gives half-maximal velocity) in data set [1] was found to be 140 ± 30 µM; in data set [2] it was 90 ± 10 µM; in data set [3], 130 ± 30 µM; in data set [4], 190 ± 40 µM. In addition, the kcat/Km (usually the second-order rate constant that governs catalysis at low substrate concentration) in data set [1] stood at 2.34e+07 M⁻¹ s⁻¹; in data set [2], 4.59e+07 M⁻¹ s⁻¹; in data set [3], 3.95e+07 M⁻¹ s⁻¹; in data set [4] it was 322000 M⁻¹ s⁻¹.
